Reference: publication PMC7840992

Biological target: luminGAVPO (luminescent GAVPO), Nluc-GAVPO fusion with NG configuration

“luminGAVPO (luminescent GAVPO), Nluc-GAVPO fusion with NG configuration” was tested, and the induction ratio of a Gluc reporter driven by Gal4 binding sites, HEK293 cells, furimazine alone 0-25 uM, maximum at 2.5 uM was 116 fold.
